Measurements published in the supplement of paper PMC10567573.

B1: BRF1 (parent)
chain: FVESSGGGSSAVGQFVSLDGAGKT

Variants of: B1
Assay: protein stability index of a GFP-peptide fusion (GPS, HEK-293T) (PSI 1-6); higher = more stable
Conditions: c terminus: a fixed tail appended
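Note: lentivirally expressed fusions sorted by FACS into six bins by GFP to DsRed ratio, PSI derived from sequencing read proportions per bin multiplied by bin number.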

Row | Variant | protein stability index
1 | FVESSYGGSSAVGQFVSLDGAGKT | 2.45
2 | FVESSLGGSSAVGQFVSLDGAGKT | 1.97
3 | FVESSDGGSSAVGQFVSLDGAGKT | 2.96
4 | FVESSVGGSSAVGQFVSLDGAGKT | 2.18
5 | FVESSPGGSSAVGQFVSLDGAGKT | 2.23
6 | FVESSSGGSSAVGQFVSLDGAGKT | 2.7
7 | FVESSWGGSSAVGQFVSLDGAGKT | 2.5
8 | FVESSCGGSSAVGQFVSLDGAGKT | 1.97
9 | FVESSMGGSSAVGQFVSLDGAGKT | 1.76
10 | FVESSTGGSSAVGQFVSLDGAGKT | 2.53
11 | FVESSNGGSSAVGQFVSLDGAGKT | 1.89
12 | FVESSHGGSSAVGQFVSLDGAGKT | 1.74
13 | FVESSKGGSSAVGQFVSLDGAGKT | 2.3
14 | FVESSIGGSSAVGQFVSLDGAGKT | 1.49
15 | FVESSAGGSSAVGQFVSLDGAGKT | 2.37
16 | FVESSRGGSSAVGQFVSLDGAGKT | 2.27
17 | FVESSQGGSSAVGQFVSLDGAGKT | 2.66
18 | FVESSFGGSSAVGQFVSLDGAGKT | 1.45
19 | FVESSEGGSSAVGQFVSLDGAGKT | 2.94
20 | FVEISGGGSSAVGQFVSLDGAGKT | 1.86
21 | FVEFSGGGSSAVGQFVSLDGAGKT | 2.01
22 | FVEWSGGGSSAVGQFVSLDGAGKT | 2.63
23 | FVEDSGGGSSAVGQFVSLDGAGKT | 2.49
24 | FVEGSGGGSSAVGQFVSLDGAGKT | 2.81

Row | Variant | protein stability index
25 | FVEHSGGGSSAVGQFVSLDGAGKT | 2.57
26 | FVEPSGGGSSAVGQFVSLDGAGKT | 2.67
27 | FVEQSGGGSSAVGQFVSLDGAGKT | 2.72
28 | FVETSGGGSSAVGQFVSLDGAGKT | 2.29
29 | FVEESGGGSSAVGQFVSLDGAGKT | 3.28
30 | FVERSGGGSSAVGQFVSLDGAGKT | 2.42
31 | FVEVSGGGSSAVGQFVSLDGAGKT | 2.54
32 | FVEMSGGGSSAVGQFVSLDGAGKT | 1.08
33 | FVELSGGGSSAVGQFVSLDGAGKT | 1.51
34 | FVENSGGGSSAVGQFVSLDGAGKT | 2.62
35 | FVEASGGGSSAVGQFVSLDGAGKT | 1.97
36 | FVEKSGGGSSAVGQFVSLDGAGKT | 2.63
37 | FVECSGGGSSAVGQFVSLDGAGKT | 3.2
38 | FVEYSGGGSSAVGQFVSLDGAGKT | 1.3
39 | FVESSGGGSSAGGQFVSLDGAGKT | 2.37
40 | FVESSGGGSSAEGQFVSLDGAGKT | 2.87
41 | FVESSGGGSSAAGQFVSLDGAGKT | 2.2
42 | FVESSGGGSSAIGQFVSLDGAGKT | 2.09
43 | FVESSGGGSSADGQFVSLDGAGKT | 3.13
44 | FVESSGGGSSAHGQFVSLDGAGKT | 2.25
45 | FVESSGGGSSAKGQFVSLDGAGKT | 2.88
46 | FVESSGGGSSAFGQFVSLDGAGKT | 2.01
47 | FVESSGGGSSACGQFVSLDGAGKT | 2.37
48 | FVESSGGGHSAVGQFVSLDGAGKT | 2.17

Row | Variant | protein stability index
49 | FVESSGGGTSAVGQFVSLDGAGKT | 2.29
50 | FVESSGGGNSAVGQFVSLDGAGKT | 2.38
51 | FVESSGGGGSAVGQFVSLDGAGKT | 2.36
52 | FVESSGGGRSAVGQFVSLDGAGKT | 1.68
53 | FVESSGGGISAVGQFVSLDGAGKT | 2.39
54 | FVESSGGGDSAVGQFVSLDGAGKT | 3.03
55 | FVESSGGGESAVGQFVSLDGAGKT | 3.38
56 | FVESSGGGVSAVGQFVSLDGAGKT | 2.58
57 | FVESSGGGLSAVGQFVSLDGAGKT | 1.77
58 | FVESSGGGYSAVGQFVSLDGAGKT | 2.82
59 | FVESSGGGASAVGQFVSLDGAGKT | 2.2
60 | FVESSGGGWSAVGQFVSLDGAGKT | 2.93
61 | FVESSGGGQSAVGQFVSLDGAGKT | 2.22
62 | FVESSGGGCSAVGQFVSLDGAGKT | 2.22
63 | FVESSGGGMSAVGQFVSLDGAGKT | 1.99
64 | FVESSGGGKSAVGQFVSLDGAGKT | 1.72
65 | FVESSGGGPSAVGQFVSLDGAGKT | 1.5
66 | FVESSGGGFSAVGQFVSLDGAGKT | 1.49
67 | FVESCGGGSSAVGQFVSLDGAGKT | 2.03
68 | FVESKGGGSSAVGQFVSLDGAGKT | 2.58
69 | FVESAGGGSSAVGQFVSLDGAGKT | 2.57
70 | FVESVGGGSSAVGQFVSLDGAGKT | 1.75
71 | FVESMGGGSSAVGQFVSLDGAGKT | 1.75
72 | FVESGGGGSSAVGQFVSLDGAGKT | 2.19

Row | Variant | protein stability index
73 | FVESLGGGSSAVGQFVSLDGAGKT | 1.36
74 | FVESYGGGSSAVGQFVSLDGAGKT | 1.53
75 | FVESIGGGSSAVGQFVSLDGAGKT | 2.24
76 | FVESQGGGSSAVGQFVSLDGAGKT | 2.71
77 | FVESPGGGSSAVGQFVSLDGAGKT | 2.01
78 | FVESFGGGSSAVGQFVSLDGAGKT | 3
79 | FVESNGGGSSAVGQFVSLDGAGKT | 2.65
80 | FVESTGGGSSAVGQFVSLDGAGKT | 2.62
81 | FVESEGGGSSAVGQFVSLDGAGKT | 3.68
82 | FVESRGGGSSAVGQFVSLDGAGKT | 1.92
83 | FVESHGGGSSAVGQFVSLDGAGKT | 1.81
84 | FVESDGGGSSAVGQFVSLDGAGKT | 3.37
85 | FVWSSGGGSSAVGQFVSLDGAGKT | 3.35
86 | FVMSSGGGSSAVGQFVSLDGAGKT | 2.71
87 | FVNSSGGGSSAVGQFVSLDGAGKT | 1.75
88 | FVTSSGGGSSAVGQFVSLDGAGKT | 1.43
89 | FVHSSGGGSSAVGQFVSLDGAGKT | 2.01
90 | FVCSSGGGSSAVGQFVSLDGAGKT | 1.88
91 | FVVSSGGGSSAVGQFVSLDGAGKT | 3.03
92 | FVRSSGGGSSAVGQFVSLDGAGKT | 3.14
93 | FVDSSGGGSSAVGQFVSLDGAGKT | 1.97
94 | FVISSGGGSSAVGQFVSLDGAGKT | 2.62
